# Laboratory results: the supplement of paper PMC10724198
# ± gives the standard deviation of the averaged measurements.
# Test system: Saccharomyces cerevisiae
# Experiment: protein stability index of tFT-peptide fusion (C-terminal peptide) (PSI (0-1 scale)); higher = more stable (slower turnover)
# Settings: genetic background: wild type; temperature: 30 C
# Experimental: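 Multiplexed protein stability (MPS) profiling in S. cerevisiae. Random 12-aa peptides (tFT-X12 library) are fused to the C-terminus of a sfGFP-mCherry tandem fluorescent timer, after mCherry and a GGGS linker. Cells are FACS-sorted into 8 mCherry/sfGFP bins and deep-sequenced. The protein stability index (PSI) is the read-weighted bin average, scaled from 0 (unstable) to 1 (stable). Only peptides with >10 reads are reported; cells were grown at 30 °C in SC-His with glucose.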
# 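Further: PSI is a weighted mean of sequencing reads over stability bins, variants kept only with over 10 reads, mCherry proximal and sfGFP distal, peptide attached via GGGS linker.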
row,Sequence,protein stability index
1,SCPPSFIPVLSP,0.667 ± 0.035
2,PPPFPLLPRYGF,0.657 ± 0.066
3,FLLVLPLSGLIV,0.528 ± 0.016
4,LFPALFWPTSTL,0.743 ± 0.032
5,RKNKLKQNKKYR,0.718 ± 0.012
6,PPPVPPPAPLLS,0.642 ± 0.074
7,NRPKVNSQERGY,0.666 ± 0.02
8,KKTLIQKEQIRR,0.644 ± 0.022
9,PLALRPPFSHGL,0.698 ± 0.024
10,FRGPRSFRGVVW,0.757 ± 0.08
11,MEAAARRMIKRK,0.6 ± 0.04
12,YCGGRWGGWEIG,0.684 ± 0.0037
13,SVSDPLPPRQTV,0.721 ± 0.057
14,ISDRKARSDKNK,0.656 ± 0.071
15,RIKHKNRNKKKN,0.791 ± 0.033
16,GGEYVGGRGCGL,0.682 ± 0.1
17,GDYGRLINLVTR,0.6815 ± 0.0059
18,SFVLFAGPVFFW,0.655 ± 0.025
19,APLPPLRPPPSA,0.687 ± 0.043
20,EGGGGVEGAAWG,0.694 ± 0.022
21,SKKNKNIQKHLY,0.728 ± 0.011
22,AAPSPHPLNSLS,0.687 ± 0.036
23,GLWSGWGMVGCV,0.737 ± 0.047
24,RVVPTKTIAGSA,0.6502 ± 0.0014
25,AGGSGGEAGSEG,0.655 ± 0.043

row,Sequence,protein stability index
1,STKQTTTTERAI,0.67 ± 0.013
2,GRGAGRATQSPP,0.597 ± 0.064
3,ERLKRNKKSTNG,0.726 ± 0.018
4,RLKLKSECYSPL,0.667 ± 0.034
5,MKEKTNLETKDT,0.691 ± 0.013
6,PPSPHLVPYYLP,0.677 ± 0.014
7,DVSSRDLCWLVC,0.6422 ± 0.0052
8,GRVVVKTFRDFF,0.635 ± 0.064
9,PLPPPPPPPPLP,0.767 ± 0.024
10,PAPPLPPLPLLP,0.684 ± 0.013
11,LSTSLPLSPPPP,0.652 ± 0.013
12,IILVVLSRLYVI,0.5644 ± 0.003
13,GLSSPLPLALPV,0.649 ± 0.023
14,SAQSAGRQRLQK,0.695 ± 0.014
15,LRIAKSGVGGFA,0.636 ± 0.029
16,NNMFFTREYEKL,0.674 ± 0.013
17,PPTIPLRTLPTS,0.703 ± 0.018
18,LLDTSTVTCFER,0.741 ± 0.01
19,NRELTAVTFQRY,0.709 ± 0.05
20,APPPSVCPRFPI,0.796 ± 0.012
21,SLVLSFPLLSLP,0.697 ± 0.025
22,SGLVCDGSSGGV,0.635 ± 0.0083
23,PPYRVVLPLFVP,0.508 ± 0.033
24,IIRKYKARKKNK,0.688 ± 0.041
25,SPSRPTPNTIGP,0.615 ± 0.031

row,Sequence,protein stability index
1,LSPLPPSPPPST,0.543 ± 0.025
2,IQRIPSGSGRVR,0.736 ± 0.058
3,GGNSRASAVKGA,0.702 ± 0.1
4,WLDDCVRVGMRI,0.6722 ± 0.0033
5,VGAGLRMRVGEA,0.669 ± 0.035
6,GIGYVTPLSRVL,0.72 ± 0.038
7,PPPPPRFSPHPP,0.695 ± 0.013
8,KKKKKKKTKKRK,0.717 ± 0.029
9,KKKKKETKNAQQ,0.685 ± 0.0077
10,GGVVLDEEVGCG,0.614 ± 0.06
11,SPSIRFILWGPI,0.678 ± 0.041
12,HSQPPRRPSTNP,0.792 ± 0.033
13,KKRRTCPNRRDK,0.554 ± 0.036
14,CFVERRCFLLYR,0.562 ± 0.029
15,PAPLLPPSWRHP,0.716 ± 0.015
16,FLHPPPSALVLP,0.726 ± 0.03
17,QGELHRDVYIVI,0.6793 ± 0.0013
18,SRAPRDVFSPPM,0.72 ± 0.019
19,PPPPPLPPPSPP,0.598 ± 0.036
20,GVGGGWVGCGVI,0.764 ± 0.06
21,GDASLSSLHIRL,0.642 ± 0.02
22,RPCDLISGFCGL,0.695 ± 0.012
23,GMNCDMCRIRTL,0.683 ± 0.0088
